Test results taken from article PMC5737872.
Like-named read-outs stand apart in the source and are kept apart here.

How the values were obtained:
Test in all cases: X-ray crystallography
[1] = target: T1, Nrd1 290-468 wt (Saccharomyces cerevisiae, UniProt P53617 290-468)
T1 sequence: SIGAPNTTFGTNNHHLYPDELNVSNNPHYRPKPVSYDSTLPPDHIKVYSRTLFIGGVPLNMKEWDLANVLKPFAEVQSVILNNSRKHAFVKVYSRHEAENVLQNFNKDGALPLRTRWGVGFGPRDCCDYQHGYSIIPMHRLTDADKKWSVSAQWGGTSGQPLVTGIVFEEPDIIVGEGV

[2] = target: T1, Nrd1 290-468 wt; remark: listed apart in the source
[3] = target: T1, Nrd1 290-468 wt; remark: listed apart in the source

B1: UUAGUAAUCC (ssRNA)
RNA: UUAGUAAUCC
[1]
  binding result: binds

B2: GUAA (ssRNA)
RNA: GUAA
[2]
  binding result: binds

B3: CGUAAA (ssRNA)
RNA: CGUAAA
[3]
  binding result: binds
